Results: publication PMC12847774, “SERPINB3 enhances NPM1 sumoylation via inhibiting SENP3’s activity and promotes lung tumorigenesis” (Cell Death & Disease, 2025)

Target: T1, SENP3 purified protein (UniProt Q9H4L4 1-574)
T1 construct: SENP3; cloned into pET-28a(+) between BamHI and HindIII; also called wild-type SENP3; pET-28a (+)-SENP3; source: E. coli Rosetta (DE3), purified (Ni-NTA)
Assay: co-IP; in vitro immunoprecipitation with Flag antibody using purified recombinant proteins
Conditions: both partners purified

T1 sequence (Q9H4L4 whole entry): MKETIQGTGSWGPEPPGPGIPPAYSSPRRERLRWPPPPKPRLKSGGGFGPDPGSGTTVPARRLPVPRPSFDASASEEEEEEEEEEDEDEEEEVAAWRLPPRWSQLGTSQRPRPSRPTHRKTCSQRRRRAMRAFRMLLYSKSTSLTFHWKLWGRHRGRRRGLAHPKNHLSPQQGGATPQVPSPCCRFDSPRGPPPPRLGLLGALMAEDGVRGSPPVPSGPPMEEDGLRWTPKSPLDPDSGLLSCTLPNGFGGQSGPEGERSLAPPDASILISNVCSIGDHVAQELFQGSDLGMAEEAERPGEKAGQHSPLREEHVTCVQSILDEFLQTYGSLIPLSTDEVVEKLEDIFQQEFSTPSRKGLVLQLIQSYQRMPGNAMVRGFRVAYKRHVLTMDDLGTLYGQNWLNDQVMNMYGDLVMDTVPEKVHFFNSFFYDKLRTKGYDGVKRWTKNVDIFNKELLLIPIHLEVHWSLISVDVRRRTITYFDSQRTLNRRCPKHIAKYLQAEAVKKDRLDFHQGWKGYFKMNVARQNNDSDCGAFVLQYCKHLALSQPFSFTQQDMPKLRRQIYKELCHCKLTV

B1: Flag-SERPINB3 purified protein (natural protein, UniProt P29508 1-390, looked up)
chain: MNSLSEANTKFMFDLFQQFRKSKENNIFYSPISITSALGMVLLGAKDNTAQQIKKVLHFDQVTENTTGKAATYHVDRSGNVHHQFQKLLTEFNKSTDAYELKIANKLFGEKTYLFLQEYLDAIKKFYQTSVESVDFANAPEESRKKINSWVESQTNEKIKNLIPEGNIGSNTTLVLVNAIYFKGQWEKKFNKEDTKEEKFWPNKNTYKSIQMMRQYTSFHFASLEDVQAKVLEIPYKGKDLSMIVLLPNEIDGLQKLEEKLTAEKLMEWTSLQNMRETRVDLHLPRFKVEESYDLKDTLRTMGMVDIFNGDADLSGMTGSRGLVLSGVLHKAFVEVTEEGAEAAAATAVVGFGSSPTSTNEEFHCNHPFLFFIRQNKTNSILFYGRFSSP
notes: SERPINB3; cloned into pET-28a(+) between BamHI and HindIII; the methods name only pET-28a (+)-SERPINB3; also called SCCA1; pET-28a (+)-SERPINB3; source: E. coli BL21(DE3), purified (Ni-NTA)
Question: Does B1 bind?
Answer: Result: binds
